# From patent US20080095772A1 (Chugai, published 2008)
# Residue numbers refer to the chain shown, from its start. Like-named read-outs stand apart in the source and are kept apart here.
# B1: chimeric #23-57-137-1 antibody with human κ L chain C region (antibody, V domains shown)
# VH: EVQLVESGGDLVKPGGSLKLSCAASGFTFSSYGMSWIRQTPDKRLEWVATISSGGSYTYYPDSVKGRFTISRDNAKNTLYLQMSSLKSEDTAMFYCARQTTMTYFAYWGQGTLVTVSA
# VL: QLVLTQSSSASFSLGASAKLTCTLSSQHSTYTIEWYQQQPLKPPKYVMDLKQDGSHSTGDGIPDRFSGSSSGADRYLSISNIQPEDEAMYICGVGDTIKEQFVYVFGGGTKVTVLG
# notes: Mouse V regions on a human Cγ1 H chain C region and a human Cκ L chain C region (from HEF-PM1k-gk); also called chimeric antibody (κ); MBC1HcDNA + MBC1L(κ)/neo
# B2: chimeric #23-57-137-1 antibody with human λ L chain C region (antibody, V domains shown)
# VH: B1 VH
# VL: B1 VL
# notes: It was expressed in COS-7 for ELISA and in CHO for BIACORE; also called chMBC; chH-chλ
# B3: mouse monoclonal antibody #23-57-137-1 (antibody, V domains shown)
# VH: B1 VH
# VL: B1 VL
# notes: Whole mouse antibody with a mouse λ L chain; The H chain cDNA was amplified with the MHC-G1 primer; also called MBC
# B4: mouse FR1/human FR2/mouse FR3,4 hybrid antibody (L chain mhmMBC1L(λ), humanized H chain version a) (antibody, V domains shown)
# VH: QVQLVESGGGVVQPGRSLRLSCAASGFTFSSYGMSWVRQAPGKGLEWVATISSGGSYTYYPDSVKGRFTISRDNSKNTLYLQMNSLRAEDTAVYYCARQTTMTYFAYWGQGTLVTVSS
# VL: B1 VL with Y36H, L41E, P43G, K45R, V47L, D49K
# notes: Human Cγ1 and human Cλ C regions; Expressed in COS-7
# B5: humanized #23-57-137-1 antibody, H chain version a, L chain version s (antibody, V domains shown)
# VH: B4 VH
# VL: QLVLTQSPSASASLGASVKLTCTLSSQHSTYTIEWYQQQPEKGPKYVMDLKQDGSHSTGDGIPDRFSGSSSGAERYLTISSLQSEDEADYICGVGDTIKEQFVYVFGGGTKLTVLG
# B6: hH / hLa (antibody, V domains shown)
# VH: B4 VH
# VL: QLVLTQSPSASASLGASVKLTCTLSSQHSTYTIEWHQQQPEKGPRYLMKLKQDGSHSTGDGIPDRFSGSSSGAERYLTISSLQSEDEADYYCGVGDTIKEQFVYVFGGGTKLTVL
# notes: copies: 2 + 2
# B7: humanized #23-57-137-1 antibody, H chain version a, L chain version m (antibody, V domains shown)
# VH: B4 VH
# VL: B5 VL with K45R, V47L, I91Y
# notes: Human Cγ1 and human Cλ C regions; Expressed in COS-7 for ELISA and in CHO for BIACORE; also called hMBCm
# B8: hH / hLc (antibody, V domains shown)
# VH: B4 VH
# VL: B6 VL with S84P
# notes: copies: 2 + 2
# B9: humanized #23-57-137-1 antibody, H chain version a, L chain version q (antibody, V domains shown)
# VH: B4 VH
# VL: B5 VL with V47L
# notes: Human Cγ1 and human Cλ C regions; Expressed in COS-7 for ELISA and in CHO for BIACORE; also called hMBCq
# B10: hH / hLn (antibody, V domains shown)
# VH: B4 VH
# VL: B6 VL with H36Y, L47V
# notes: copies: 2 + 2
# B11: humanized #23-57-137-1 antibody, H chain version a, L chain version j (antibody, V domains shown)
# VH: B4 VH
# VL: B5 VL with V47L, I91Y
# notes: as for B4
# B12: humanized #23-57-137-1 antibody, H chain version a, L chain version t (antibody, V domains shown)
# VH: B4 VH
# VL: B5 VL with K45R
# notes: as for B4
# B13: humanized #23-57-137-1 antibody, H chain version a, L chain version l (antibody, V domains shown)
# VH: B4 VH
# VL: B5 VL with I91Y
# notes: as for B4
# B14: mouse FR1,2/human FR3,4 hybrid antibody (L chain m/hMBC1Laλ, humanized H chain version a) (antibody, V domains shown)
# VH: B4 VH
# VL: B5 VL with P8S, A12F, V18A, E41L, G43P, I91Y
# notes: as for B4
# B15: hH / hLf (antibody, V domains shown)
# VH: B4 VH
# VL: B6 VL with S84P, Y91I
# notes: copies: 2 + 2
# B16: human FR1,2/mouse FR3,4 hybrid antibody (L chain h/mMBC1L(λ), humanized H chain version a) (antibody, V domains shown)
# VH: B4 VH
# VL: B1 VL with S8P, F12A, A18V, Y36H, L41E, P43G, K45R, V47L, D49K
# notes: Human Cγ1 and human Cλ C regions; Expressed in COS-7; also called h/mMBC1Ld(λ)
# B17: humanized #23-57-137-1 antibody, H chain version a, L chain version r (antibody, V domains shown)
# VH: B4 VH
# VL: B5 VL with K45R, V47L
# B18: human FR1/mouse FR2,3,4 hybrid antibody (L chain hmmMBC1L(λ), humanized H chain version a) (antibody, V domains shown)
# VH: B4 VH
# VL: B1 VL with S8P, F12A, A18V
# notes: as for B4
# B19: hH / hLb (antibody, V domains shown)
# VH: B4 VH
# VL: B6 VL with G43P, K49D
# notes: copies: 2 + 2
# B20: humanized #23-57-137-1 antibody, H chain version a, L chain version o (antibody, V domains shown)
# VH: B4 VH
# VL: B5 VL with K45R, I91Y
# notes: as for B4
# B21: mouse FR1,2/human FR3,4 hybrid antibody (L chain m/hMBC1Ldλ, humanized H chain version a) (antibody, V domains shown)
# VH: B4 VH
# VL: B5 VL with P8S, A12F, V18A, E41L, G43P
# notes: as for B4
# B22: hH / hLd (antibody, V domains shown)
# VH: B4 VH
# VL: B6 VL with Y91I
# notes: copies: 2 + 2
# B23: antibody comprising the humanized H chain version "a" and the chimeric L chain (antibody, V domains shown)
# VH: B4 VH
# VL: B1 VL
# notes: Human Cγ1 H chain C region
# Key:
# [1] = target: T1, human PTHrP (1-34) (human); test: ELISA on plate-coated human PTHrP (1-34) (1 µg/ml); bound antibody detected with alkaline phosphatase-conjugated goat anti-human IgG; O.D. 405/620
# T1 construct: Synthetic peptide (Peninsula; Peptide Research Institute), coated on ELISA plates at 1 µg/ml or used in solid phase RIA; also called human parathyroid hormone related protein (1-34)
# Experimental: An ELISA plate for the determination of antigen binding ability was prepared as follows. Each of the wells of a 96-well plate for ELISA was coated with 100 μl of a solution comprising human PTHrP (1-34) (Peptide Research Institute) prepared in a coating buffer of a concentration of 1 μg/ml and then blocked with 200 μl of a dilution buffer. […] After incubating at room temperature and washing with PBS-Tween20, each well was added with 100 μl of a solution of alkaline phosphatase-conjugated goat anti-human IgG antibodies (TAGO). After incubating at room temperature and washing with PBS-Tween20, each well was added with 1 mg/ml of a substrate solution (“Sigma104”, p-nitrophenylphosphoric acid, SIGMA). The solution was measured for absorbance at −405 nm using Microplate Reader (Bio Rad).
# [2] = target: T2, PTHrP (1-34+Cys) (human, C-terminal Cys coupled to sensor tip CM5 through PDEA (thiol coupling)); test: BIACORE (SPR), PTHrP (1-34+C) immobilised on CM5 through the C-terminal Cys, antibody as analyte
# Experimental: (§1) In this experiment, kinetic analysis of the antigen-antibody interaction using BIACORE was conducted. PTHrP(1-34+Cys) was used as an antigen and adsorbed onto the sensor tip specifically for C-terminals. Purified antibodies of various concentrations were used as an analyte. From the sensorgram obtained, kinetics parameters (binding rate constant “kass” and dissociation rate constant “kdiss”) were calculated.
# (§2) As a running buffer, HBS (10 mM HEPES, pH 7.4; 0.15 M NaCl; 3.4 mM EDTA; 0.005% Surfactant P20) at a flow rate of 5 μl/min. was employed. The carboxyl groups of carboxymethyldextran on the sensor tip CM5 were activated by an injection of 100 μl of 0.05M N-hydroxysuccinimide (NHS)/0.2M N-ethyl-N′-(3-dimethylaminopropyl)carbodiimide hydrochloride (EDC) and an injection of 100 μl of 80 mM 2-(2-pyridinyldithio)ethanamine (PDEA)/0.1M borate buffer (pH 8.5), and an additional injection of 10 μl of 5 μg/ml PTHrP (1-34+C)/10 mM sodium acetate buffer (pH 5.0) to adsorbe onto the C-terminals of PTHrP (1-34+C) specifically for Cys residues. Subsequently, an injection of 100 μl of 50 mM (L)-cystein/1M NaCl/0.1M sodium formate buffer (pH 4.3) was conducted to block excessively activated groups. Subsequently, an injection of 10 μl of 0.1M glycine-HCl buffer (pH 2.5) and 10 μl of 10 mM HCl was conducted to wash the substances having non-covalent bonding.
# (§3) The date file of interest was read and a comparison of the reaction patterns was conducted by overlaying the reaction regions of interest (FIGS. 20-24). […] Further, kinetic analysis of the interaction was conducted using an analysis software specifically designed for BIACORE “BIAevaluation 2.1” (Pharmacia) which is capable of calculating the kinetics parameters (binding rate constant “kass” and dissociation rate constant “kdiss”) by curve cutting (Tables 4 and 5).
# [3] = target: T1, human PTHrP (1-34); test: ELISA on plate-coated human PTHrP (1-34) (1 µg/ml); bound antibody detected with alkaline phosphatase-conjugated goat anti-human IgG; O.D. 405/620; remark: listed apart in the source
# Experimental: (§4) An ELISA plate for determining antigen binding ability was prepared as follows. Each of the wells of a 96-well plate for ELISA (Maxisorp, NUNC) was coated with 100 μl of a coating buffer supplemented with 1 μg/ml of human PTHrP (1-34) and then blocked with 200 μl of a dilution buffer. Thereafter, into each of the wells, was added a culture supernatant of the COS-7 cells in which the hybrid antibody or humanized antibody was expressed or a solution of the purified hybrid antibody or the purified humanized antibody in stepwise dilution. After incubating at room temperature and washing with PBS-Tween20, 100 μl of alkaline phosphatase-conjugated goat anti-human IgG antibody (TAGO) was added to each of the wells. […] The solution was measured for absorbance at 405 nm using Microplate Reader (Bio Rad).
# [4] = target: T1, human PTHrP (1-34); test: solid phase RIA of hybridoma supernatants
# [5] = target: T2, PTHrP (1-34+Cys); test: BIACORE (SPR), PTHrP (1-34+C) immobilised on CM5 through the C-terminal Cys, antibody as analyte; remark: listed apart in the source
# Experimental: as §1, §2, §3
# [6] = target: T1, human PTHrP (1-34); test: ELISA on plate-coated human PTHrP (1-34) (1 µg/ml); bound antibody detected with alkaline phosphatase-conjugated goat anti-human IgG; O.D. 405/620; remark: listed apart in the source
# Experimental: as §4
# [7] = target: T1, human PTHrP (1-34); test: as above; remark: listed apart in the source
# Experimental: as §4
# [8] = target: T1, human PTHrP (1-34); test: as above; remark: listed apart in the source
# Experimental: as §4
# [9] = target: T1, human PTHrP (1-34); test: as above; remark: listed apart in the source
# Experimental: as §4
# [10] = target: T1, human PTHrP (1-34); test: as above; remark: listed apart in the source
# Experimental: as §4
# [11] = target: T1, human PTHrP (1-34); test: as above; remark: listed apart in the source
# Experimental: as §4
binder,measurement,setting,value
B1,binding result,[1],binds
B2,Kd,[2],0.134 nM
same,koff,[2],0.000166 s⁻¹
same,kon,[2],1.24e+06 M⁻¹ s⁻¹
same,binding result,[3],binds
B3,binding result,[4],binds
same,Kd,[5],0.102 nM
same,koff,[5],7.38e-05 s⁻¹
same,kon,[5],723000 M⁻¹ s⁻¹
B4,binding result,[3],no binding (tested: about 250 ng/ml)
B5,binding result,[6],binds
B6,binding result,[7],no binding (tested: about 390 ng/ml)
B7,Kd,[2],0.358 nM
same,koff,[2],0.000316 s⁻¹
same,kon,[2],883000 M⁻¹ s⁻¹
same,binding result,[8],binds
B8,binding result,[7],no binding (tested: about 460 ng/ml)
B9,Kd,[2],0.225 nM
same,koff,[2],0.000232 s⁻¹
same,kon,[2],1.03e+06 M⁻¹ s⁻¹
same,binding result,[6],binds
B10,binding result,[8],no binding (tested: about 1650 ng/ml)
B11,binding result,[9],binds
B12,binding result,[6],binds
B13,binding result,[8],binds
B14,binding result,[10],binds
B15,binding result,[9],no binding (tested: about 380 ng/ml)
B16,binding result,[10],no binding (tested: about 340 ng/ml)
B17,binding result,[6],binds
B18,binding result,[3],binds
B19,binding result,[7],no binding (tested: about 370 ng/ml)
B20,binding result,[8],binds
B21,binding result,[10],binds
B22,binding result,[7],no binding (tested: about 510 ng/ml)
B23,binding result,[11],binds
